Read-outs that look alike come from different tables or passages of the source. Square brackets hold non-standard residues; d marks the D form. Ends that are not written are not given here. Phe(4-N3) = [N-]=[N+]=Nc1ccc(C[C@H](N)C(=O)O)cc1; Phe(4-NH2) = Nc1ccc(C[C@H](N)C(=O)O)cc1
T1: calf thymus/mouse ribonucleotide reductase (mammalian RR) (Bos taurus, UniProt Q32LP1)
T1 sequence (Q32LP1 1-791): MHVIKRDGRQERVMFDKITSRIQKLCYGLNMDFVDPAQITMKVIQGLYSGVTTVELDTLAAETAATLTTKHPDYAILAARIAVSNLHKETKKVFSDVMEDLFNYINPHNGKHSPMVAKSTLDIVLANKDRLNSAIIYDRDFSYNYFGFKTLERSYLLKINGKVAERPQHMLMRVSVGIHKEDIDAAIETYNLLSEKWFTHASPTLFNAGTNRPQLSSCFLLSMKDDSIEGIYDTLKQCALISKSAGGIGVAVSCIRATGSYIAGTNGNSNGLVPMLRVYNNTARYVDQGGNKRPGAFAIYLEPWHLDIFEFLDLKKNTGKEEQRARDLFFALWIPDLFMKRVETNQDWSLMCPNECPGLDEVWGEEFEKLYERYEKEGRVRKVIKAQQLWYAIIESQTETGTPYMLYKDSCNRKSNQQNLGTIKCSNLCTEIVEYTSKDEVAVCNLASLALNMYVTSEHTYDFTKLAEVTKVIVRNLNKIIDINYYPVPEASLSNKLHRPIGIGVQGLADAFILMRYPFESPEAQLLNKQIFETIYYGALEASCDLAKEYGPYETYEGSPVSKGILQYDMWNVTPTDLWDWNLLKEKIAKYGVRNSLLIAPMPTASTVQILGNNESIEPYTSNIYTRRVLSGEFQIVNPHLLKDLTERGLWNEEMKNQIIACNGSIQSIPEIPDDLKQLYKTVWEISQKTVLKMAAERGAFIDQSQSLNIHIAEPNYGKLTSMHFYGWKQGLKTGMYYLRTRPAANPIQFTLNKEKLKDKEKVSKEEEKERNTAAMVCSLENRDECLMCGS

T2: human RR (Homo sapiens, UniProt P23921)
T2 sequence (P23921 1-792): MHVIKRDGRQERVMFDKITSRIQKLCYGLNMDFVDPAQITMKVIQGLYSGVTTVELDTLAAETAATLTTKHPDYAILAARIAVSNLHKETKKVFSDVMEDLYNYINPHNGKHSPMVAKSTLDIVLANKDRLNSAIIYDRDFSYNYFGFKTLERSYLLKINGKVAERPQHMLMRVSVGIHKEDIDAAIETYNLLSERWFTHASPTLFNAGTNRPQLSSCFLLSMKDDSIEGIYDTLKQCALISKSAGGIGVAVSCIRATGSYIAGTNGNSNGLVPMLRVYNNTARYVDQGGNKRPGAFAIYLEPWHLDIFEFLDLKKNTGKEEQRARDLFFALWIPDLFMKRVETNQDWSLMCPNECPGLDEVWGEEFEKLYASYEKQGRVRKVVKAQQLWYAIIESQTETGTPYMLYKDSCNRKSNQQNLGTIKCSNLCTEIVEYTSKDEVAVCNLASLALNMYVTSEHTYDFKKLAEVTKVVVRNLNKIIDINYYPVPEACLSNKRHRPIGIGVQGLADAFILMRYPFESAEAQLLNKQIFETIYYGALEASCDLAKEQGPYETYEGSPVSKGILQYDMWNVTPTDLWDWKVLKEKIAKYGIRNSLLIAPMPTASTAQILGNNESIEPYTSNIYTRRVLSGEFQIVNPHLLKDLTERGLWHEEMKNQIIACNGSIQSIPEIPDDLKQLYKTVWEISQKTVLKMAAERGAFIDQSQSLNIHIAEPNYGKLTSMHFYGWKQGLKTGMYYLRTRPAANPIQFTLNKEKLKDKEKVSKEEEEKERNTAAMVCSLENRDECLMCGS


Key:
calf thymus R1 (calf) [1] = molecular target: calf thymus R1 (calf)
[2] = molecular target: T1, calf thymus/mouse ribonucleotide reductase (mammalian RR); test: biochemical
Description: From two to four assays were run

human RR = molecular target: T2, human RR; details: background, "about"; cited from earlier work
[3] = molecular target: S. cerevisiae (yeast) RR (S. cerevisiae)
calf thymus R1 (calf) [4] = molecular target: calf thymus R1 (calf); remark: listed apart in the source
calf thymus R1 (calf) [5] = molecular target: calf thymus R1 (calf); remark: listed apart in the source

Molecule | Percent RI (percent relative inhibitory potency), mammalian RR activity (calf thymus R1 (calf) [1]) [%] | IC50, inhibition of mammalian RR activity (calf thymus R1 (calf) [1]) [µM] | other results
Ac-(FTFTADF) (peptide) | 18 |  | 
Ac-(FTLDALF) (peptide) | 35 |  | 
Ac-FTLDADF [Peptide 4, Ac- (FTLDADF), reference compound] |  |  | IC50 [2]: 8 to 20 µM; IC50 ([2]; IC50, Mammalian RR, Table 5, mammalian RR, Dixon plots): 8 to 20 µM; IC50 ([2]; IC50 on mammalian RR activity, Example 54 text, peptide bound to purified calf thymus R1 before adding recombinant mouse R2): 10 to 20 µM; IC50 (human RR): 10 to 20 µM
SFTLDADF (peptide) | 25 | 80 | 
SFTLDADF [Peptide 3] |  |  | IC50 [2]: 80 µM; Percent RI (percent relative inhibitory potency) ([2]; Table 4, 100 × (IC50 Ac(FTLDADF)/IC50 peptide analog), mammalian RR): 25%
Ac-SFTLDADF [Ac-(SFTLDADF)] | 100 |  | 
Ac-FTLAADF [Ac-(FTLAADF)] | 2.9 |  | 
Ac-TFNEDF [Ac-(TFNEDF)] |  |  | IC50, inhibition of Yeast RR activity [3]: 600 µM; IC50, inhibition of mammalian RR activity (calf thymus R1 (calf) [4]): 600 µM
Ac-[Phe(4-NH2)]TLDADF [Ac-(F(4'-NH2)TLDADF)] | 10 | 100 | 
Ac-NSFTLDADF | 100 |  | 
Ac-TLDADF [Ac-(TLDADF)] | < 3 | > 400 | 
FTLDADF | < 3 | > 400 | 
Ac-FTLDANF [Ac-(FTLDANF)] | 23 |  | 
Ac-LDADF [Ac-(LDADF)] | < 3 | > 400 | 
Ac-FTLDADF [Ac-(FTLDADF)] | 100 |  | IC50, inhibition of Yeast RR activity [3]: 25 µM; IC50, inhibition of mammalian RR activity (calf thymus R1 (calf) [5]): 10 to 20 µM
Ac-FTLDADFAA | 2.1 | 500 | 
Ac-FTFNEDF [Ac-(FTFNEDF)] |  |  | IC50, inhibition of Yeast RR activity [3]: 25 µM; IC50, inhibition of mammalian RR activity (calf thymus R1 (calf) [4]): 100 µM

Molecule | Percent RI (percent relative inhibitory potency), mammalian RR activity (calf thymus R1 (calf) [1]) [%] | IC50, inhibition of mammalian RR activity (calf thymus R1 (calf) [1]) [µM] | other results
Ac-FTADADF [Ac-(FTADADF)] | 4.9 | 207 | 
Ac-LTLDADF [Ac-(LTLDADF)] | < 3 | > 400 | 
Ac-FTLDDF [Ac-(FTLDDF) (3 pos. del.)] | 3 | 322 | 
Ac-AGAFTFNEDF |  |  | IC50, inhibition of Yeast RR activity [3]: 25 µM
Ac-FALDADF [Ac-(FALDADF)] | 24 |  | 
Ac-FLDADF [Ac-(FLDADF) (6 pos. del.)] | 2.5 | 412 | 
Ac-FTLDADL [Ac-(FTLDADL)] | < 3 | > 400 | 
Ac-FTLDGDF [Ac-(FTLDGDF)] | 9 |  | 
Ac-FTVDADF [Ac-(FTVDADF)] | 35 | 30 | 
Ac-[Phe(4-N3)]TLDADF [Ac-(F(4'-N3)TLDADF)] | 10 | 100 | 
Ac-FTLDAAF [Ac-(FTLDAAF)] | 28 |  | 
Ac-FTLDF [Ac-(FTLDF) (3 & 4 pos. del.)] | 2.5 |  | 
Ac-FTLNADF [Ac-(FTLNADF)] | 40 |  | 
Ac-FSLDADF [Ac-(FSLDADF)] | 25 |  | 
Ac-FTLDAEF [Ac-(FTLDAEF)] | 1.7 |  | 
Ac-FTLDLDF [Ac-(FTLDLDF)] | 35 | 28 | 
